In PMC1166539, “Determination of thermodynamic parameters of Xerocomus chrysenteron lectin interactions with N-acetylgalactosamine and Thomsen-Friedenreich antigen by isothermal titration calorimetry” (BMC Biochemistry, 2005):

B1: fetuin from fetal bovine serum (natural protein, UniProt P12763 19-359, looked up)
chain: IPLDPVAGYKEPACDDPDTEQAALAAVDYINKHLPRGYKHTLNQIDSVKVWPRRPTGEVYDIEIDTLETTCHVLDPTPLANCSVRQQTQHAVEGDCDIHVLKQDGQFSVLFTKCDSSPDSAEDVRKLCPDCPLLAPLNDSRVVHAVEVALATFNAESNGSYLQLVEISRAQFVPLPVSVSVEFAVAATDCIAKEVVDPTKCNLLAEKQYGFCKGSVIQKALGGEDVRVTCTLFQTQPVIPQPQPDGAEAEAPSAVPDAAGPTPSAAGPPVASVVVGPSVVAVPLPLHRAHYDLRHTFSGVASVESSSGEAFHVGKTPIVGQPSIPGGPVRLCPGRIRYFKI
modifications: three carbohydrate units O-linked to Thr or Ser residues and three complex glycans N-linked to Asn residues (a fourth O-linked residue may exist); exposed Gal residues linked to sialic acid residues
notes: fetuin (fetuin-A, alpha-2-HS-glycoprotein), bovine, from fetal bovine serum; glycoprotein bearing the Thomsen-Friedenreich antigen motif; also called native fetuin; source: bought: Sigma (from fetal bovine serum)
B2: asialofetuin from fetal bovine serum (natural protein, UniProt P12763 19-359, looked up)
chain: IPLDPVAGYKEPACDDPDTEQAALAAVDYINKHLPRGYKHTLNQIDSVKVWPRRPTGEVYDIEIDTLETTCHVLDPTPLANCSVRQQTQHAVEGDCDIHVLKQDGQFSVLFTKCDSSPDSAEDVRKLCPDCPLLAPLNDSRVVHAVEVALATFNAESNGSYLQLVEISRAQFVPLPVSVSVEFAVAATDCIAKEVVDPTKCNLLAEKQYGFCKGSVIQKALGGEDVRVTCTLFQTQPVIPQPQPDGAEAEAPSAVPDAAGPTPSAAGPPVASVVVGPSVVAVPLPLHRAHYDLRHTFSGVASVESSSGEAFHVGKTPIVGQPSIPGGPVRLCPGRIRYFKI
modifications: O-linked and N-linked glycans as in fetuin, but the sialic acid residues are absent
notes: fetuin (fetuin-A, alpha-2-HS-glycoprotein), bovine, from fetal bovine serum, without sialic acids (asialofetuin); Same polypeptide as fetuin; it differs only in lacking sialic acid on the glycans; source: bought: Sigma (from fetal bovine serum)
B3: Xerocomus chrysenteron lectin with histidine tag and TEV site (natural protein, UniProt Q8WZC9 1-143, looked up)
chain: MSYSITLRVYQTNRDRGYFSIVEKTVWHFANGGTWSEANGAHTLTQGGSGTSGVLRFLSTKGERITVAVGVHNYKRWCDVVTGLKPDETALVINPQYYNNGGRDYVREKQLAEYSVTSAIGTKVEVVYTVAEGNNLEANVIFS
notes: lectin from the mushroom Xerocomus chrysenteron (XCL); expressed as a fusion of histidine tag, TEV site and XCL; The fits used the monomer concentration; also called XCL; XCLtag

Tests used:
[1] = molecular target: T1, XCL (XCLtag), Xerocomus chrysenteron lectin (Xerocomellus chrysenteron, UniProt Q8WZC9); assay: isothermal titration calorimetry; assay type: binding; details: 25 mM sodium phosphate pH 7, 27°C
T1 construct: recombinant, E. coli BL21(DE3); homotetramer
T1 sequence (Q8WZC9 1-143): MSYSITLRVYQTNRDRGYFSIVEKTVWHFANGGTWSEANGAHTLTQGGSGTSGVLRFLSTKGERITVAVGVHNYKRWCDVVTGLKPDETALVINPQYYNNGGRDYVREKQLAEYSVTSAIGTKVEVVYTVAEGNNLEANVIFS

[2] = molecular target: B3; assay: ITC; 2 mM fetuin or asialofetuin titrated (38 injections of 5 ul) into 0.25 mM XCLtag in the cell; 27°C; 25 mM Na2HPO4/NaH2PO4, pH 7; XCL monomer concentration used in the fit; details: both partners purified
[3] = molecular target: B3; assay: as above; details: both partners purified; remark: listed apart in the source
[4] = molecular target: B2; assay: as above; details: both partners purified
[5] = molecular target: B1; assay: as above; details: both partners purified

## CC(=O)N[C@H]1C(O)O[C@H](CO)[C@@H](O[C@@H]2O[C@H](CO)[C@H](O)[C@H](O)[C@H]2O)[C@@H]1O (some centres unmarked) [N-acetyllactosamine]
[1]; significant fitting errors stated for Ka below 100 M^-1, read-out: affinity constant (converted)
  Kd: ~20 mM

## CC(=O)N[C@H]1C(O)O[C@H](CO)[C@H](O)[C@@H]1O (some centres unmarked) [N-acetylgalactosamine]
[1]; no PEG, per monomer, abstract prints Kd 5.2 μM, inconsistent with this Ka (reciprocal 5.2 mM)
  Ka, M^-1: 192 ± 5

## B1
[2]
  stoichiometry N: 0.23
[3]
  dH: -90 ± 2.09 kJ/mol

## B2
[2]
  stoichiometry N: 0.23
[3]
  dH: -70.3 ± 10.5 kJ/mol

## B3
[4]
  Ka: 2.59e+06 ± 0.6 M⁻¹
[5]
  Ka: 590000 ± 1.4 M⁻¹
